The values that follow come from article PMC10397247.

The target in assay [1] is T1, O15.
T1 chain: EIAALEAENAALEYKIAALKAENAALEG
The experiment in a line: two-hybrid library CC0.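 Note: natural log of median RNA to DNA barcode read ratio; higher means stronger binding.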 The settings on record: mean of both orientations.

Assay [2] addresses T2, O5.
T2 chain: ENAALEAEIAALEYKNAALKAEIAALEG
Nature of the assay: two-hybrid library CC0.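 Note: natural log of median RNA to DNA barcode read ratio; higher means stronger binding.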 To be noted: mean of both orientations.

The target of assay [3] is T3, O16.
T3 chain: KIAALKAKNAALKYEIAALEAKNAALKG
The experiment in a line: two-hybrid library CC0.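 Note: natural log of median RNA to DNA barcode read ratio; higher means stronger binding.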 The settings on record: mean of both orientations.

Assay [4] has as its target T4, O9.
T4 chain: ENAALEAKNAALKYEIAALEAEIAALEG
Nature of the assay: two-hybrid library CC0.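 Note: natural log of median RNA to DNA barcode read ratio; higher means stronger binding.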 The settings on record: mean of both orientations.

Assay [5] concerns the target T5, O13.
T5 chain: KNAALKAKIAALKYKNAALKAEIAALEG
Nature of the assay: two-hybrid library CC0.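 Note: natural log of median RNA to DNA barcode read ratio; higher means stronger binding.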 To be noted: mean of both orientations.

Assay [6] deals with T6, O14.
T6 chain: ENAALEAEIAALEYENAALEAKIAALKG
Nature of the assay: two-hybrid library CC0.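 Note: natural log of median RNA to DNA barcode read ratio; higher means stronger binding.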 The settings on record: mean of both orientations.

Assay [7] deals with T7, O3.
T7 chain: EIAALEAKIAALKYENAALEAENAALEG
Nature of the assay: two-hybrid library CC0. To be noted: mean of both orientations.

Assay [8] addresses T8, O8.
T8 chain: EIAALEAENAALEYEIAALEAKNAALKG
Nature of the assay: two-hybrid library CC0. To be noted: mean of both orientations.

Assay [9] concerns the target T9, O6.
T9 chain: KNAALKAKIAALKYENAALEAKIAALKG
The experiment in a line: two-hybrid library CC0. To be noted: mean of both orientations.

The target of assay [10] is T10, O7.
T10 chain: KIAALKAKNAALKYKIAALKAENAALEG
The experiment in a line: two-hybrid library CC0. To be noted: mean of both orientations.

Assay [11] deals with T11, O4.
T11 chain: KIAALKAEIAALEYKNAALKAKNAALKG
The experiment in a line: two-hybrid library CC0. To be noted: mean of both orientations.

The target in assay [12] is T12, O2.
T12 chain: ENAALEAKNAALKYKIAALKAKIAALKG
Nature of the assay: two-hybrid library CC0. To be noted: mean of both orientations.

The target of assay [13] is T13, 4H993-AA.
T13 chain: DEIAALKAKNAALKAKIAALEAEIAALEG
The experiment in a line: two-hybrid library CCmax. To be noted: mean of both orientations.

The target in assay [14] is T14, 4H717-AA.
T14 chain: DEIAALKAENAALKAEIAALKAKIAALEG
Nature of the assay: two-hybrid library CCmax. To be noted: mean of both orientations.

Assay [15] concerns the target T15, 4H454-AA.
T15 chain: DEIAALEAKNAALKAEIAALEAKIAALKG
Nature of the assay: two-hybrid library CCmax.

Assay [16] concerns the target T16, N5-AA.
T16 chain: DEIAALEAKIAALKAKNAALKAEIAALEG
Nature of the assay: two-hybrid library CCmax. To be noted: mean of both orientations.

In assay [17] the target is T17, 4H794-AA.
T17 chain: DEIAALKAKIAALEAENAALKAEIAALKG
The experiment in a line: two-hybrid library CCmax. The settings on record: mean of both orientations.

In assay [18] the target is T18, 4H780-AA.
T18 chain: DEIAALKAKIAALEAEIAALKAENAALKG
The experiment in a line: two-hybrid library CCmax. The settings on record: mean of both orientations.

The target of assay [19] is T19, 4H48-AA.
T19 chain: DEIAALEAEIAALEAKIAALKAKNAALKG
Nature of the assay: two-hybrid library CCmax. The settings on record: mean of both orientations.

For assay [20], the target named is T20, 4H881-AA.
T20 chain: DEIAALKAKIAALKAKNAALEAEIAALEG
The experiment in a line: two-hybrid library CCmax. To be noted: mean of both orientations.

Assay [21] concerns the target T21, N6-AA.
T21 chain: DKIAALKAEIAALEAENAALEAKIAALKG
The experiment in a line: two-hybrid library CCmax. To be noted: mean of both orientations.

The target of assay [22] is T22, 4H605-AA.
T22 chain: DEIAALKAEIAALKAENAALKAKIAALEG
The experiment in a line: two-hybrid library CCmax. To be noted: mean of both orientations.

Assay [23] has as its target T23, 4H566-AA.
T23 chain: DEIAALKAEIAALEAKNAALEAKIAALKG
The experiment in a line: two-hybrid library CCmax. The settings on record: mean of both orientations.

In assay [24] the target is T24, 4H678-AA.
T24 chain: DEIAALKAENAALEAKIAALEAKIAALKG
The experiment in a line: two-hybrid library CCmax. To be noted: mean of both orientations.

Assay [25] has as its target T25, 4H906-AA.
T25 chain: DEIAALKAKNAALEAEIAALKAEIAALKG
Nature of the assay: two-hybrid library CCmax. The settings on record: mean of both orientations.

KNAALKAKIAALKYKNAALKAEIAALEG [O13]: the interaction score in [1] was -0.499; in assay [2], -2.45; in assay [3], -2.87; in assay [4], -2.75; in [5], -2.86; in assay [6], 1.21. Moreover, the interaction score is -2.81 in assay [7]; -1.5 in assay [8]; -1.12 in assay [9]; -2.81 in assay [10]; -2.72 in assay [11]; -2.82 in [12].
As for DEIAALEAKNAALKAEIAALEAKIAALKG [4H454-AA], the interaction score in assay [13] is 1.82; in assay [14], 0.898; in assay [15], 1.45; in assay [16], 0.301; in [17] it was -0.535; in assay [18], -1.48. In addition, the interaction score in [19] was -0.839; in assay [20], 0.451; in assay [21], 1.89; in assay [22] it was -1.24; in assay [23], 0.133; in assay [24] it was 2.11. Moreover, the interaction score in [25] was 0.951.
